Substrate: CCn1c(=NN=c2sc3cc(S(=O)(=O)O)ccc3n2CC)sc2cc(S(=O)(=O)O)ccc21
Assay: purified protein
Format: biochemical, Trametes sanguinea
Settings: 100 mM sodium succinate pH 4, room temperature (routine assay conditions)

B1: Recombinant Lcc (TaLcc3 laccase) (Trametes sanguinea) (protein)
chain: AIGPKADLVISDAVVNPDGTPRDAVVVNGAFPGPLISGKKGDHFQLNVINKLTNHTMLKTTSIHWHGLFQEHTNWADGPAFVNQCPIASGHSFLYDFHVPDQAGTYWYHSHLSTQYCDGLRGPLVVYDPHDPQAHLYDVDNDDTVITLADWYHVAAKVGPQFPRGADSTLINGRGRAASDSTAELTVITVEHGKRYRFRLVSISCDPNHTFSIDGHNMTIIEVEGVNSKPLTVDSIQIFAAQRYSFMLNANQPVDNYWIRANPSGGTVGFEGGINSAILRYKGAPDAEPTNTTAPTSVIPLVETNLHPLKPMQVPGRSGIGNVDYAKTLNFNFNGTNFFINNATFTPPTVPVLLQILSGAHSAQDLLPPGSVYTLPPHSAIEITMPATTMAPGSPHPFHLHGHVFAVVRSAGSTEYNYHDPIFRDVVSTGQPGDSVTIRFMTDNPGPWFLHCHIDFHLEAGFAIVFAEDVNEIKYANPVPPSWAELCPIYDKLPESDH
notes: full cDNA with native signal peptide (predicted cleaved between residues 20 and 21), no tag mentioned; secreted by Trichoderma atroviride IMI206040 strain Talcc3; purified; ORF 1557 bp, 519 amino acids
Which results are given for B1?
Km: 48.10 ± 4.9 µM; kcat: 69.7 ± 3.47 s⁻¹; kcat/Km: 1.44e+06 M⁻¹ s⁻¹

From publication PMC4743974, “Xenobiotic Compounds Degradation by Heterologous Expression of a Trametes sanguineus Laccase in Trichoderma atroviride” (PLoS ONE, 2016)
